The record followed here is patent publication US20230052142A1 (NORDIC BIOSCIENCE A S, published 2023).

The assay concerns the target T1, monoclonal antibody clone NBH134 #102-3GF.
T1 construct: also called TUM antibody; HRP labeled monoclonal antibody
The assay is described as follows: TUM competitive ELISA: the standard peptide in solution competes with plate-bound …-K-Biotin for the HRP-labelled antibody. How it is done: Plates were washed five times in washing buffer (20 mM TRIS, 50 mM NaCl, pH 7.2). Subsequently, 20 μL of standard peptide or sample were added to appropriate wells, followed by 100 μL of 7 ng/mL horseradish peroxidase (HRP) labeled monoclonal antibody solution. The plates were incubated for 1 hour at 20° C. with shaking, and subsequently washed in washing buffer. Finally, 100 μL 3,3′,5,5-tetramethylbenzinidine (TMB) (Kem-En-Tec cat. 4380H) was added, and incubated for 15 min at 20° C. To stop the enzyme reaction of TMB, 100 μL of stopping solution (1% H₂SO₄) was added. The plate was analyzed by an ELISA reader at 450 nm with 650 nm as reference (Molecular Devices, VersaMax, CA, USA). A standard curve was performed by serial dilution of the standard peptide and plotted using a 4-parametric mathematical fit model. Standard concentrations were 0, 0.3125, 0.625, 1.25, 2.5, 5, 10, and 20 ng/mL. Each plate included five kit controls to monitor inter-assay variation. All samples were measured within the range of the assay, and all samples below lower limit of measurement range (LLMR) were reported as the value of LLMR.

B1: standard peptide PGLKGKRGDS (peptide)
peptide: PGLKGKRGDS
notes: Synthetic peptide bought from Genscript; also called calibrator peptide; calibration peptide
The term IC50 denotes the concentration that inhibits the measured activity by half. Read a low IC50 as greater potency in that assay. For the molecule B1, the IC50 came to 1.6 ng/mL.
